From article doi:10.1101/310227
Ends that are not written are not given here.

Assays:
[1] = target: Halo-tagged isopeptide-blocker (Spy0128 β-strand11 mimic) (Streptococcus pyogenes); experiment: pull-down
[2] = target: Spy0128 polyprotein I91-Spy0128-I91-Spy0128-I91 (not stated | Streptococcus pyogenes); experiment: AFM force spectroscopy

Molecule	percent of modified Spy0128 after enrichment on Magne-HaloTag-beads [1]	percent of AFM traces with at least one modified Spy0128 [2]	percent of Spy0128 blocked [2]
Spy0128 polyprotein I91-Spy0128-I91-Spy0128-I91	60%		
MEFTDKDMTITFTNKKDAEEDIRSEDLYFQSDNTTPE (also: Halo-tagged, site not given here) [Halo-tagged isopeptide-blocker (Spy0128 β-strand11 mimic)]		32.5%	21.1%
